Legend:
Test in all cases: holdup assay
Set-up in all cases: key: below the threshold = too weak to quantify, mostly under pKd 3.1 to 4
LNX1_3, Q8TBB1 = biological target: LNX1_3, Q8TBB1
DLG1_2, Q12959 = biological target: DLG1_2, Q12959
DLG1_3, Q12959 = biological target: DLG1_3, Q12959
MAGI3_2, Q5TCQ9 = biological target: MAGI3_2, Q5TCQ9
DFNB31_2, Q9P202 = biological target: T1, DFNB31_2, Q9P202
T1 sequence (Q9P202 274-371, limits assumed, looked up): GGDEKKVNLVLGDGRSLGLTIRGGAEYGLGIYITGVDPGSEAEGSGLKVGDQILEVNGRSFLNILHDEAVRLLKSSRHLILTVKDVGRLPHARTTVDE

HTRA2, O43464 = biological target: HTRA2, O43464
APBA1_1, Q02410 = biological target: T2, APBA1_1, Q02410
T2 sequence (Q02410 651-752, limits assumed, looked up): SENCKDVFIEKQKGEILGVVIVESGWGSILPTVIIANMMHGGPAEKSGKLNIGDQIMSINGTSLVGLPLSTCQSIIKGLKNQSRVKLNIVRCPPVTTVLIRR

SCRIB_2, Q14160 = biological target: SCRIB_2, Q14160
RADIL, Q96JH8 = biological target: T3, RADIL, Q96JH8
T3 sequence (Q96JH8 971-1071, limits assumed, looked up): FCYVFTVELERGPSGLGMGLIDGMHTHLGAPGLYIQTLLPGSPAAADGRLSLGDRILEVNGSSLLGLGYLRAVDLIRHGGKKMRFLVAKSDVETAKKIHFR

PDZD2_2, O15018 = biological target: T4, PDZD2_2, O15018
T4 sequence (O15018 329-429, limits assumed, looked up): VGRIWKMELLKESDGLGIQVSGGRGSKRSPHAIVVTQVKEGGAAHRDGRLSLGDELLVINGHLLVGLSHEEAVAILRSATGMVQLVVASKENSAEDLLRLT

AHNAK1, Q09666 = biological target: AHNAK1, Q09666
Inadl_3, Q8NI35 = biological target: Inadl_3, Q8NI35
SNTG2, Q9NY99 = biological target: T5, SNTG2, Q9NY99
T5 sequence (Q9NY99 68-166, limits assumed, looked up): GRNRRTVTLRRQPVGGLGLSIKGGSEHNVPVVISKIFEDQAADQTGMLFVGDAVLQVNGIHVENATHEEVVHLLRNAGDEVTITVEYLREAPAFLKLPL

GRIP1_4, Q9Y3R0 = biological target: T6, GRIP1_4, Q9Y3R0
T6 sequence (Q9Y3R0 467-571, limits assumed, looked up): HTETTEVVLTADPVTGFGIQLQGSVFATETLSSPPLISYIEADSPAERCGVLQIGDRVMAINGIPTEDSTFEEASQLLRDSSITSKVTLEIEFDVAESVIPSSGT

Inadl_6, Q8NI35 = biological target: Inadl_6, Q8NI35
FRMPD2_3, Q68DX3 = biological target: FRMPD2_3, Q68DX3
Inadl_5, Q8NI35 = biological target: Inadl_5, Q8NI35
SNX27, Q96L92 = biological target: SNX27, Q96L92
GRIP1_7, Q9Y3R0 = biological target: T7, GRIP1_7, Q9Y3R0
T7 sequence (Q9Y3R0 999-1096, limits assumed, looked up): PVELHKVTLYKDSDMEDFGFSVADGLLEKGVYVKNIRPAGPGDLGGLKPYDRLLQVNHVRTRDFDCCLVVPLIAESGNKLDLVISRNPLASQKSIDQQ

LNX1_2, Q8TBB1 = biological target: LNX1_2, Q8TBB1
Inadl_2, Q8NI35 = biological target: Inadl_2, Q8NI35
MPP7, Q5T2T1 = biological target: T8, MPP7, Q5T2T1
T8 sequence (Q5T2T1 134-230, limits assumed, looked up): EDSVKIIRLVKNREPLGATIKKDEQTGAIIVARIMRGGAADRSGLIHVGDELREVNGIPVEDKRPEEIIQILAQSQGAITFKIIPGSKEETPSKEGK

TJP1_2, Q07157 = biological target: TJP1_2, Q07157
NHERF3_4, Q5T2W1 = biological target: T9, NHERF3_4, Q5T2W1
T9 sequence (Q5T2W1 373-468, limits assumed, looked up): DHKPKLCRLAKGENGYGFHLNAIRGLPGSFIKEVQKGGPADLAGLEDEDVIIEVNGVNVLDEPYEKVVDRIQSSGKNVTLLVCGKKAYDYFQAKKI

APBA1_2, Q02410 = biological target: T10, APBA1_2, Q02410
T10 sequence (Q02410 742-832, limits assumed, looked up): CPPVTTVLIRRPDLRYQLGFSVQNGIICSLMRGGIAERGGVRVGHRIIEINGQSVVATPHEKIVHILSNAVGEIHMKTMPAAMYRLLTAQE

TJP1_3, Q07157 = biological target: TJP1_3, Q07157
DLG3_3, Q92796 = biological target: T11, DLG3_3, Q92796
T11 sequence (Q92796 374-475, limits assumed, looked up): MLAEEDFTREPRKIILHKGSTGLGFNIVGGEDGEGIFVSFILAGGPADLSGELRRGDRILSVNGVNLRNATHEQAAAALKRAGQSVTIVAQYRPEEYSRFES

[1] = plain residues with an end cap or a label only (N-terminal biotin on a linker: (peg)3)
[2] = plain residues with an end cap or a label only (N-terminal biotin on a linker: ado-ado)

Sequence of MAGI3_2, Q5TCQ9 (Q5TCQ9 398-503): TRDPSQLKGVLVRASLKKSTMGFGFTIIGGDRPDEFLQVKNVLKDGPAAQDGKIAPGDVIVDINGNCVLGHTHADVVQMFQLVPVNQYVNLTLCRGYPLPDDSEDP
Sequence of FRMPD2_3, Q68DX3 (Q68DX3 1073-1166): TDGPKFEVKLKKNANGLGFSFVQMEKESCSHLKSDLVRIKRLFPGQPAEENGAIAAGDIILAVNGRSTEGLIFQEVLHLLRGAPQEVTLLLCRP
Sequence of TJP1_3, Q07157 (Q07157 416-512): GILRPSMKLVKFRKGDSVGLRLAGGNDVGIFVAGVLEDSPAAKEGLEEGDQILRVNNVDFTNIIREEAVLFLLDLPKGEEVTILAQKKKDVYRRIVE
Sequence of TJP1_2, Q07157 (Q07157 181-274): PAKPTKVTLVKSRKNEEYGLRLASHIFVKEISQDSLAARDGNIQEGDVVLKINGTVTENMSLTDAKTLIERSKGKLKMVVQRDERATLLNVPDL
Sequence of DLG1_3, Q12959 (Q12959 457-571): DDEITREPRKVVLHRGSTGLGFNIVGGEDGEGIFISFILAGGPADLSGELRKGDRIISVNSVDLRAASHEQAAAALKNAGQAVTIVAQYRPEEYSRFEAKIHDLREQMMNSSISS
Sequence of HTRA2, O43464 (O43464 355-458): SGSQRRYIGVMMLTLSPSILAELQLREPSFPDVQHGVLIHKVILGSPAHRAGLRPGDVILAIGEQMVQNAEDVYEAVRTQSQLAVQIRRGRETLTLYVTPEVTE
Sequence of Inadl_3, Q8NI35 (Q8NI35 359-469): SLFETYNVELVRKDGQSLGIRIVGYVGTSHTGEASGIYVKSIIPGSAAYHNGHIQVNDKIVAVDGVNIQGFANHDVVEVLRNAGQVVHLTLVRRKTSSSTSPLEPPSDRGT
Sequence of LNX1_3, Q8TBB1 (Q8TBB1 500-596): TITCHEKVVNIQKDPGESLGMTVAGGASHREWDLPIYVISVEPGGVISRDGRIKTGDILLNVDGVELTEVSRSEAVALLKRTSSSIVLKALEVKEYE
Sequence of AHNAK1, Q09666 (Q09666 4-100): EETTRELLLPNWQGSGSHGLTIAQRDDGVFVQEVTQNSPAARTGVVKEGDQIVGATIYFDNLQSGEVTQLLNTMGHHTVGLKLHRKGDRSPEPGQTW
Sequence of Inadl_5, Q8NI35 (Q8NI35 673-780): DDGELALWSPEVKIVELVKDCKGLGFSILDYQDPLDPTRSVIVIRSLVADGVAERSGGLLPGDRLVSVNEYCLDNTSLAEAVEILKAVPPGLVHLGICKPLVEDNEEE
Sequence of DLG1_2, Q12959 (Q12959 314-412): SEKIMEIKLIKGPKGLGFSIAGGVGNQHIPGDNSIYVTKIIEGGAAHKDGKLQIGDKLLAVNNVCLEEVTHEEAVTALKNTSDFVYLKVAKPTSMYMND
Sequence of Inadl_2, Q8NI35 (Q8NI35 238-335): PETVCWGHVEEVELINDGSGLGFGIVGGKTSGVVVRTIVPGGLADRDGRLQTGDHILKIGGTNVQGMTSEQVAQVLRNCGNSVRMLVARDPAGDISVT
Sequence of LNX1_2, Q8TBB1 (Q8TBB1 371-470): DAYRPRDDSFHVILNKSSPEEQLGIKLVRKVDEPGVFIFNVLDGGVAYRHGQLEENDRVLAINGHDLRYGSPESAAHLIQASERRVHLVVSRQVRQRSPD
Sequence of Inadl_6, Q8NI35 (Q8NI35 1058-1167): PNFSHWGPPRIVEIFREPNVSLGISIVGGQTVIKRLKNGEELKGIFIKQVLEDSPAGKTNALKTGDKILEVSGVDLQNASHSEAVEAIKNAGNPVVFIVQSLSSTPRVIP
Sequence of SCRIB_2, Q14160 (Q14160 857-960): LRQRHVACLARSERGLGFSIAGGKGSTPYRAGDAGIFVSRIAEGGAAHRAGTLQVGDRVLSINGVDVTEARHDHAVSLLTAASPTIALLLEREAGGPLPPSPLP

B1: SARS-Cov2-3a, P0DTC3 (peptide)
chain: YDEPTTTTSVPL
pKd (LNX1_3, Q8TBB1; [1]): below the threshold
pKd (DLG1_2, Q12959; [1]): below the threshold
pKd (DLG1_3, Q12959; [1]): below the threshold
pKd (MAGI3_2, Q5TCQ9; [1]): below the threshold
pKd (DFNB31_2, Q9P202; [1]): below the threshold
pKd (HTRA2, O43464; [1]): below the threshold
pKd (APBA1_1, Q02410; [1]): below the threshold
pKd (SCRIB_2, Q14160; [1]): below the threshold
pKd (RADIL, Q96JH8; [1]): below the threshold
pKd (PDZD2_2, O15018; [1]): below the threshold
pKd (AHNAK1, Q09666; [1]): 3.77
pKd (Inadl_3, Q8NI35; [1]): below the threshold
pKd (SNTG2, Q9NY99; [1]): below the threshold
pKd (GRIP1_4, Q9Y3R0; [1]): below the threshold
pKd (Inadl_6, Q8NI35; [1]): below the threshold
pKd (FRMPD2_3, Q68DX3; [1]): below the threshold
pKd (Inadl_5, Q8NI35; [1]): below the threshold
pKd (SNX27, Q96L92; [1]): below the threshold
pKd (GRIP1_7, Q9Y3R0; [1]): below the threshold
pKd (LNX1_2, Q8TBB1; [1]): below the threshold
pKd (Inadl_2, Q8NI35; [1]): below the threshold
pKd (MPP7, Q5T2T1; [1]): below the threshold
pKd (TJP1_2, Q07157; [1]): 4.56
pKd (NHERF3_4, Q5T2W1; [1]): 4.29
pKd (APBA1_2, Q02410; [1]): below the threshold
pKd (TJP1_3, Q07157; [1]): below the threshold
pKd (DLG3_3, Q92796; [1]): below the threshold

B2: APBA1, Q02410 (peptide)
chain: LTAQEQPVYI
pKd (LNX1_3, Q8TBB1; [2]): below the threshold
pKd (DLG1_2, Q12959; [2]): below the threshold
pKd (DLG1_3, Q12959; [2]): below the threshold
pKd (MAGI3_2, Q5TCQ9; [2]): below the threshold
pKd (DFNB31_2, Q9P202; [2]): below the threshold
pKd (HTRA2, O43464; [2]): 3.53
pKd (APBA1_1, Q02410; [2]): 3.65
pKd (SCRIB_2, Q14160; [2]): below the threshold
pKd (RADIL, Q96JH8; [2]): 4.53
pKd (PDZD2_2, O15018; [2]): 4.36
pKd (AHNAK1, Q09666; [2]): below the threshold
pKd (Inadl_3, Q8NI35; [2]): below the threshold
pKd (SNTG2, Q9NY99; [2]): below the threshold
pKd (GRIP1_4, Q9Y3R0; [2]): below the threshold
pKd (Inadl_6, Q8NI35; [2]): below the threshold
pKd (FRMPD2_3, Q68DX3; [2]): below the threshold
pKd (Inadl_5, Q8NI35; [2]): 3.86
pKd (SNX27, Q96L92; [2]): below the threshold
pKd (GRIP1_7, Q9Y3R0; [2]): below the threshold
pKd (LNX1_2, Q8TBB1; [2]): below the threshold
pKd (Inadl_2, Q8NI35; [2]): 3.72
pKd (MPP7, Q5T2T1; [2]): below the threshold
pKd (TJP1_2, Q07157; [2]): 3.55
pKd (NHERF3_4, Q5T2W1; [2]): below the threshold
pKd (APBA1_2, Q02410; [2]): 4.36
pKd (TJP1_3, Q07157; [2]): below the threshold
pKd (DLG3_3, Q92796; [2]): below the threshold
